Reference: paper PMC10256812

B1: HA-tagged SREBF1 (wild type), expressed in C4-2B cells [not stated] / KAT2A/GCN5, endogenous [human (endogenous in C4-2B, LAPC4)] (parent)
chain 1: MDEPPFSEAALEQALGEPCDLDAALLTDIEDMLQLINNQDSDFPGLFDPPYAGSGAGGTDPASPDTSSPGSLSPPPATLSSSLEAFLSGPQAAPSPLSPPQPAPTPLKMYPSMPAFSPGPGIKEESVPLSILQTPTPQPLPGALLPQSFPAPAPPQFSSTPVLGYPSPPGGFSTGSPPGNTQQPLPGLPLASPPGVPPVSLHTQVQSVVPQQLLTVTAAPTAAPVTTTVTSQIQQVPVLLQPHFIKADSLLLTAMKTDGATVKAAGLSPLVSGTTVQTGPLPTLVSGGTILATVPLVVDAEKLPINRLAAGSKAPASAQSRGEKRTAHNAIEKRYRSSINDKIIELKDLVVGTEAKLNKSAVLRKAIDYIRFLQHSNQKLKQENLSLRTAVHKSKSLKDLVSACGSGGNTDVLMEGVKTEVEDTLTPPPSDAGSPFQSSPLSLGSRGSGSGGSGSDSEPDSPVFEDSKAKPEQRPSLHSRGMLDRSRLALCTLVFLCLSCNPLASLLGARGLPSPSDTTSVYHSPGRNVLGTESRDGPGWAQWLLPPVVWLLNGLLVLVSLVLLFVYGEPVTRPHSGPAVYFWRHRKQADLDLARGDFAQAAQQLWLALRALGRPLPTSHLDLACSLLWNLIRHLLQRLWVGRWLAGRAGGLQQDCALRVDASASARDAALVYHKLHQLHTMGKHTGGHLTATNLALSALNLAECAGDAVSVATLAEIYVAAALRVKTSLPRALHFLTRFFLSSARQACLAQSGSVPPAMQWLCHPVGHRFFVDGDWSVLSTPWESLYSLAGNPVDPLAQVTQLFREHLLERALNCVTQPNPSPGSADGDKEFSDALGYLQLLNSCSDAAGAPAYSFSISSSMATTTGVDPVAKWWASLTAVVIHWLRRDEEAAERLCPLVEHLPRVLQESERPLPRAALHSFKAARALLGCAKAESGPASLTICEKASGYLQDSLATTPASSSIDKAVQLFLCDLLLVVRTSLWRQQQPPAPAPAAQGTSSRPQASALELRGFQRDLSSLRRLAQSFRPAMRRVFLHEATARLMAGASPTRTHQLLDRSLRRRAGPGGKGGAVAELEPRPTRREHAEALLLASCYLPPGFLSAPGQRVGMLAEAARTLEKLGDRRLLHDCQQMLMRLGGGTTVTSS
chain 2: MAEPSQAPTPAPAAQPRPLQSPAPAPTPTPAPSPASAPIPTPTPAPAPAPAAAPAGSTGTGGPGVGSGGAGSGGDPARPGLSQQQRASQRKAQVRGLPRAKKLEKLGVFSACKANETCKCNGWKNPKPPTAPRMDLQQPAANLSELCRSCEHPLADHVSHLENVSEDEINRLLGMVVDVENLFMSVHKEEDTDTKQVYFYLFKLLRKCILQMTRPVVEGSLGSPPFEKPNIEQGVLNFVQYKFSHLAPRERQTMFELSKMFLLCLNYWKLETPAQFRQRSQAEDVATYKVNYTRWLCYCHVPQSCDSLPRYETTHVFGRSLLRSIFTVTRRQLLEKFRVEKDKLVPEKRTLILTHFPKFLSMLEEEIYGANSPIWESGFTMPPSEGTQLVPRPASVSAAVVPSTPIFSPSMGGGSNSSLSLDSAGAEPMPGEKRTLPENLTLEDAKRLRVMGDIPMELVNEVMLTITDPAAMLGPETSLLSANAARDETARLEERRGIIEFHVIGNSLTPKANRRVLLWLVGLQNVFSHQLPRMPKEYIARLVFDPKHKTLALIKDGRVIGGICFRMFPTQGFTEIVFCAVTSNEQVKGYGTHLMNHLKEYHIKHNILYFLTYADEYAIGYFKKQGFSKDIKVPKSRYLGYIKDYEGATLMECELNPRIPYTELSHIIKKQKEIIKKLIERKQAQIRKVYPGLSCFKEGVRQIPVESVPGIRETGWKPLGKEKGKELKDPDQLYTTLKNLLAQIKSHPSAWPFMEPVKKSEAPDYYEVIRFPIDLKTMTERLRSRYYVTRKLFVADLQRVIANCREYNPPDSEYCRCASALEKFFYFKLKEGGLIDK

Variants of: B1
Assay: co-immunoprecipitation (anti-HA affinity gel, immunoblot with KAT2A antibody), band quantification
Conditions: with KAT2A/GCN5, endogenous [human (endogenous in C4-2B, LAPC4)]; C4-2B cells; + Abi; parent: 1

| Variant | response |
| --- | --- |
| chain 1 Y673A Y951A | 0.01 |
